Article PMC6220998

Columns and labels:
[1] = biological target: KAT1 K+ channel of Arabidopsis, myc-tagged (Arabidopsis) (UniProt Q39128)
[2] = biological target: KAT1 K+ channel of Arabidopsis, myc-tagged (Arabidopsis) (UniProt Q39128); remark: listed apart in the source

UniProt Q39128, sequence (Q39128 whole entry): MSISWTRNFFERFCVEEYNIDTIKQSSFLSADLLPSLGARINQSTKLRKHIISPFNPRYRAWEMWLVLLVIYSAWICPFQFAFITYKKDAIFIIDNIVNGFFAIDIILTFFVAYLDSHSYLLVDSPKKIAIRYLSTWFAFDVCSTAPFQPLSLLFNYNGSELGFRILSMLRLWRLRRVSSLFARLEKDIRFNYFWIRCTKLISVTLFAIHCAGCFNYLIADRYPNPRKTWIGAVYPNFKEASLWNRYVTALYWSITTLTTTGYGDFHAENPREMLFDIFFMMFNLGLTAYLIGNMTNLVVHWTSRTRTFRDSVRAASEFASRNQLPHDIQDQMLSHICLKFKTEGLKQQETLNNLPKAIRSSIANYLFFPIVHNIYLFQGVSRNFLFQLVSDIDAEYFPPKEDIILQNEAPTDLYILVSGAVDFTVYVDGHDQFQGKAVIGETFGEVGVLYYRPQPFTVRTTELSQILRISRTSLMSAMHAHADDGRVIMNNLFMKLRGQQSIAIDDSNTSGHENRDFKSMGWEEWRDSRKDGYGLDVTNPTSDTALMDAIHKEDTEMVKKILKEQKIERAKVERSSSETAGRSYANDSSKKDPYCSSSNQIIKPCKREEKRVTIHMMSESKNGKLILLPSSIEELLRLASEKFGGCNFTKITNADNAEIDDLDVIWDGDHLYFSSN

Substance | single-channel open probability Po of KAT1 at −120 mV after adding 1 μM SYP121^ΔC to inside-out patches [1] | amount of SYP121^ΔC in the oocyte that gives a near-maximal effect on KAT1 gating (roughly 0.4 ng per oocyte) [2]
SYP121^ΔC, soluble cytosolic domain, recombinant (domain or fragment) | 3.4% | –
SYP121^ΔC, cytosolic SNARE domain, expressed in oocytes (domain or fragment) | – | 0.14 µM
